The values that follow come from PMC3184076 (2011).

This test deals with MPR.03 biotinylated peptide (HIV-1, biotin on the C-terminus). Nature of the test: SPR. A general note: Surface plasmon resonance follows binding to a sensor surface in real time, without labels.

B1: CAP206-CH12 recombinant human monoclonal antibody (antibody, V domains shown)
VH: QVQLVQSGAEVKKPGSSVKLSCKASGGTFGSYSVTWVRQAPGQTFEWVGRIVPWVGVPNYAPKFQGRVTITADKSSTVYMELTSLRFEDTAVYYCATAYEASGLSYYYYMDDWGKGTTVTVSS
VL: EIVLTQSPGTLSLSPGERATLSCRASQSVTSSYLAWFRHKPGQAPRLLIYGASYRGTGIPDRISGSGSGTDFTLTISRLEPEDFAVYYCQHYGGSPGMYTFGQGTRLEIK
For the molecule B1, the koff amounted to 0.00012 s⁻¹.

Usually koff stands for the rate constant with which the complex falls apart.
